Data from the supplement of paper PMC9170038.

Key:
MS2 coat protein [1] = test: apparent KD of MS2 coat protein, switch ON state; designed switch direction (-1 OFF switch, 1 ON switch): -1; higher = weaker reporter binding; conditions: FMN input: 0 or 200 uM; Eterna round: R93 (includes R88 designs)
Procedure, shortened: (§1)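 Apparent KD was obtained for each design as the median of normalised binding-curve fits over its clusters. RNA switches transcribed on-chip from Illumina sequencing clusters were titrated with SNAP-549-labelled MS2 coat protein (twofold steps, 0.7 or 1.5 nM to 3 µM) in 100 mM Tris-HCl pH 7.5, 80 mM KCl, 4 mM MgCl2, without or with constant ligand.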

MS2 coat protein [2] = test: apparent KD of MS2 coat protein, switch OFF state (with FMN for OFF switches, without FMN for ON switches); designed switch direction (-1 OFF switch, 1 ON switch): -1; higher = weaker reporter binding; conditions: FMN input: 0 or 200 uM; Eterna round: R93 (includes R88 designs)
Procedure, shortened: as §1

| Sequence | apparent KD of MS2 coat protein (MS2 coat protein [1]) [nM] | apparent KD of MS2 coat protein (MS2 coat protein [2]) [nM] |
| --- | --- | --- |
| ACGUACUGAGGAUAUACGAACAUGUCAAAAGACGUGAAGGGACAUGAGGAUCACCCAUGUAGAAGGCAGUACGA [Mat - Exclusion 2 - JL mod - D7] | 60.7 | 172 |
| AAGAAGUCAGGAUAUGCUGCUCGUCACGAAAGUGAUGAGUAGCAGAAGGGACAUGAGGAUCACCCAUGUAAAGA [Exclusion 4.1 (Exclusion4-cac2 - the real original)] | 55.2 | 66.6 |
| UAUAGACAUGAGGAUCACCCAUGUGAGGAUAUCAGUAACUACAAAACAUCACAUACAAUGAGAAGGCACAGAAA [JR_Exc001_Sub014] | 40 | 49.8 |
| AGGAAACAUGAGGAUCACCCAUGUGAGGAUAUACAAAAGAAAAGAAAAGAAAGAAGAAGUAGAAGGUACAAGAA [Djedkare Isesi] | 21.7 | 24.7 |
| AACAGGUCAGGAUAUGUGGAAAAAAUAAAAAAAAUAAAAACACAGAAGGGACAUGAGGAUCACCCAUGUAAAAA [May 20] | 59.5 | 75.6 |
| AACAAGUCAGGAUAUUCGACAAGUAAAUAAGUAAAUCAAAAGAAGAAGGGACAUGAGGAUCACCCAUGUAAAUA [JR_Exc004_Sub401] | 32.5 | 21.3 |
| GAAAAGCGAGGAUAUACAGAAAAAAAAACAAAAAAAGAAAAACAUGAGGAUCACCCAUGUAGAAGGCGCAAAAA [V1] | 25.9 | 49.4 |
| AGGUAGUCAGGAUAUGCGUGAAGAAUAAAACAAAUAACAACGCAGAAGGGACAUGAGGAUCACCCAUGUUAAGA [May 48] | 36.1 | 31.7 |
| UCCAGACAUGAGGAUCACCCAUGUCAGGAUAUCUAGAAAACCUCAUGUAAAAAAAACUAGAGAAGGGAUAUGAA [Design 96: Pseudoknot F] | 19.6 | 15.7 |
| AGAGGACAUGAGGAUCACCCAUGUGAGGAUAUGCACAACUAAGGACAAGAUCGCUAUAGCAGAAGGCACGUACU [JR_EXc001_Sub809] | 39.3 | 33.8 |
| GACAUGCUAGGAUAUACAGGACAAAUUGGGCAUCCGCAUGGACAUGAGGAUCACCCAUGUAGAAGGAGUAGAAA [Inonmatixe] | 368 | 798 |
| GAAACUGGAGGAUAUACGAACAUGUCAAAAGACGUGAAGGGACAUGAGGAUCACCCAUGUAGAAGGCUAGAAAG [Mat - Exclusion 2 - JL mod - D99] | 74.9 | 22.4 |
| AAAAAGGCAGGAUAUACAUGAGGAUCACCCAUGUAAAGAAAGAAAGAGGUGAAAGAAAGUAGAAGGGCCAAAAA [Ex3 sub 2] | 92.9 | 72 |
| AGCUAGUGAGGAUAUACGAAUCUGUCAAAAGACGGAAGGGAACAUGAGGAUCACCCAUGUAGAAGGCACUAGCA [Web Mod 74% 6] | 31.9 | 23.2 |
| AGUUGGCGAGGAUAUACAUGAGGAUCACCCAUGUGAGAGUAAGAAGUGAGAAAGAGAAGUAGAAGGCGCUGACA [Ruby 55] | 46.5 | 220 |
| GGUUGGCGAGGAUAUACAUGAGGAUCACCCAUGUGAGAGAAGAAAGUGAGGAGGAGAAGUAGAAGGCGCUGACG [salish99-ex3-20] | 51.4 | 98.9 |
| AAAUUGUCAGGAUAUCGUAUAAUAUGGAAAACAUAGAGAUACGAGAAGGGACAUGAGGAUCACCCAUGUAAAAC [May 96] | 36.1 | 31.1 |

| Sequence | apparent KD of MS2 coat protein (MS2 coat protein [1]) [nM] | apparent KD of MS2 coat protein (MS2 coat protein [2]) [nM] |
| --- | --- | --- |
| GAAACUAGAGGAUAUACGUACAUGUCAAAAGACGUGAAGGGACAUGAGGAUCACCCAUGUAGAAGGCUAGAAAG [Mat - Exclusion 2 - JL mod - D98] | 47.8 | 54.2 |
| AAAAAACAUGAGGAUCACCCAUGUCAGGAUAUUCGAAAAAAAAAAAAAAAAAAAAAAAGGAGAAGGGACGAAAA [DR Excl. 1] | 43.4 | 56.8 |
| AUAAUGCGAGGAUAUACAUGAGGAUCACCCAUGUAAAUAAAUAGGAGAGCCACAUUAAGUAGAAGGUGCAUUAA [JR_Exc003_Sub501] | 32.8 | 84.7 |
| ACUUAGACAGGAUAUACGUGAGUGGAAAAAGUGUUUCCACUACAUGAGGAUCACCCAUGUAGAAGGGUCUAAGA [Ex2 Design 181: Random 6B] | 48.8 | 82.3 |
| UCCACACAUGAGGAUCACCCAUGUGAGGAUAUCUAGAAAACCUCAUGUAAAAAAAUCUAGAGAAGGCAUAUGAA [Design 91: Pseudoknot A] | 24.1 | 18.6 |
| CUCAAGUAAGGAUAUACAAGAAAAGAAGAGAAAGAAAAGAAGUAGAAGGUACAUGAGGAUCACCCAUGUAAGAA [EteRNA is fun!] | 26.7 | 22.2 |
| GAAAAGUCAGGAUAUGCAGAUAAAAAAACGAAAAAAAAUCUGCAGAAGGGACAUGAGGAUCACCCAUGUAAAAA [Mat - Exclusion 4 - Mayanna - D109] | 45.6 | 45.7 |
| AAAAAACAUGAGGAUCACCCAUGUCAGGAUAUGCUCAGCAAUAUUAAAAUAAAGAACGGUAGAAGGGACAGAAA [Bilbo Confounded 23 - Jieux - Exclusion 1] | 35.8 | 34.7 |
| AAAAAACAUGAGGAUCACCCAUGUAAGGAUAUGCUCGUCAGUGCGAAAGCACAGAUGAGCAGAAGGUACAAAAA [66%, Wbt, 43] | 24.8 | 39 |
| AAAAAGUUAGGAUAUACAUGAGGAUCACCCAUGUGCACAUAUGGAGAAUAUGGUGGUAGUAGAAGGGACAAAAA [EX2 Malc#17] | 33.9 | 69.7 |
| AAAAAGUCAGGAUAUACGUAAGUGCGAAAGCACAAAUGGAAACAUGAGGAUCACCCAUGUAGAAGGGACAAGAA [JL In the Red 02 (Mod)] | 36.7 | 23.6 |
| AAUAACUCAGGAUAUACUAAAGAAAUGAAAAGAAAUAAAGAACAUGAGGAUCACCCAUGUAGAAGGGAGAAUAA [Wazad] | 94.2 | 55.1 |
| UUUACGUGAGGAUAUGCGAAUAGUACGUAAGUCUUACAGACGCAGAAGGCACAUGAGGAUCACCCAUGUGAACC [JR_Exc004_Sub310] | 22.7 | 55.9 |
| AAUAAGAGAGGAUAUACUAAAGAAAUGAAAAGGGAUAAAGAACAUGAGGAUCACCCAUGUAGAAGGCUCAAUAA [Khyan] | 24.3 | 40.3 |
| AAGAAGUGAGGAUAUCGUGCUCGUCACAAAAGUGAUGAGUACGAGAAGGCACAUGAGGAUCACCCAUGUAAAGA [Opal 36] | 40.1 | 52.6 |
| GAAACUAGAGGAUAUACGAACAUGUCAAAAGACGUGAAGGGACAUGAGGAUCACCCAUGUAGAAGGCUAGAAAG [Mat - Exclusion 2 - JL mod - D100] | 39.5 | 35.1 |
| AGUUGGCGAGGAUAUACAUGAGGAUCACCCAUGUAAAAUAAAUAAAAAAUAAAAGGGAGUAGAAGGCGCUGACA [73%, Moding Norbert Elias, 16] | 41.9 | 53.4 |
